Biological target: Glycated hemoglobin HbA1c (Homo sapiens, UniProt P69905;P68871 P69905:2-142,P68871:2-147)
Test: detection range by PEG:AptGP silicon nanowire FET in 1x PBS; hemolytic blood also detected, serum control response <10%
Conditions: also hemolytic whole blood samples; chain copies: 2
Method: Prior to the surface modification, an SiNW-FET was washed with ethanol and cleaned with oxygen plasma (25 W, 50 sccm, 60 s). The SiNW-FET device was then incubated for 15 min in an ethanol solution (1% v/v) containing an optimal ratio of MPTMS, PTMS, and PEG-silane, of which the ethanol solution was also mixed with 16.7 mM DTT to reduce the possible disulfide linkages among the thiol groups of MPTMS. Next, this silane-based SAM-modified device was rinsed with ethanol, dried under N₂, and heated at 100° C. for 15 min. Finally, the silane-based SAM-modified device was incubated in 1×PBS containing 1 μM AptGP and 16.7 mM DTT for 1 hr, where AptGP (with the 5′-SH) was immobilized to MPTMS via a disulfide bond to form a PEG:AptGP/SiNW-FET aptasensor.
We show a representative example of measuring HbA1c in the blood sample of Subject 1 by PEG:AptGP/SiNW-FET. Before detecting HbA1c in a lysed-blood sample, a PEG:AptGP/SiNW-FET aptasensor was calibrated by recording the transfer curves corresponding to various concentrations of HbA1c (CHbA1c=0-1.2 μM in 1×PBS), as shown in FIG. 14. […] By comparison, we also detected HbA1c in serum as a control test (with the transfer curves measured in the lower panel of FIG. 16 and the corresponding electrical responses presented in FIG. 17), where the serum was isolated from the tested blood sample by centrifugation.

Sequence of Glycated hemoglobin HbA1c (P69905 2-142, chain 1 of 2): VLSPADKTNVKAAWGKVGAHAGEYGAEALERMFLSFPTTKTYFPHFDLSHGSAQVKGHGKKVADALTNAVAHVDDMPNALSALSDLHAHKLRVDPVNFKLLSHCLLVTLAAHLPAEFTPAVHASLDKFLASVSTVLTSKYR
Sequence of Glycated hemoglobin HbA1c (P68871 2-147, chain 2 of 2): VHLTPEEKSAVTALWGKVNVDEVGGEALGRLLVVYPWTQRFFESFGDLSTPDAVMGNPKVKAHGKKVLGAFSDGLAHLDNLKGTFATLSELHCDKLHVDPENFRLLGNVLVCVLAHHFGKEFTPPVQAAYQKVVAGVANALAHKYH

GGTGAGTTAAGGAATCAGCGGCTCAGACGACCCGACGCAC (ssDNA, end-modified for disulfide conjugation to MPTMS on silicon nanowire) [AptGP (Aptamer A)]
binding result: binds

— US20230028090, “Method Of Using Aptamer For Detecting Glycated Hemoglobin In Whole Blood And Nanoelectronic Aptasensor” (National Taiwan University, published 2023)
